This note sets out measurements from patent KR20240010698A.

Experiment [1] has as its target FITC-labelled recombinant human HER2 (human) (UniProt P04626). In words: nanoparticle flow cytometry of CDV incubated with FITC-HER2. A general note: Flow cytometry measures light scatter and fluorescence of single cells or particles in a stream.
The target is the same in experiment [2]. Kind of experiment: flow cytometry, CDV on aldehyde/sulfate latex beads, FITC-HER2 titrated.

With “scTTZ-gLAMP1 (trastuzumab scFv fused to glycosylated LAMP1) on cell-derived vesicles”, the percent of CDV with FITC fluorescence in experiment [1] came to 44.5%. For the same substance, the EC50 in experiment [2] was 0.94 µg/mL.

As usually defined, the EC50 is the concentration at which the effect is half-maximal.
